T1: PVR conjugated to Histidine tag (PVR-HIS, Sino Cat. no. 10109-H08H) (Homo sapiens (Human), UniProt P15151 21-343)
T1 construct: Bought reagent; also called PVR-HIS tagged
T1 sequence: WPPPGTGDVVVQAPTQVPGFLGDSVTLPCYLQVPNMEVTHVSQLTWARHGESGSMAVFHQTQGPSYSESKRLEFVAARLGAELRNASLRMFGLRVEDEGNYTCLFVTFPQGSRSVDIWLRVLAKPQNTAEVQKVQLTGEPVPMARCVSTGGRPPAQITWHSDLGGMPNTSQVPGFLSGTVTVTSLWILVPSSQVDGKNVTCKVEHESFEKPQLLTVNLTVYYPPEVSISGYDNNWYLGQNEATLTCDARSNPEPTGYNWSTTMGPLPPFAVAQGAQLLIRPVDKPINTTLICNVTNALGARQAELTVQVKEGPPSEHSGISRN

T2: chlorocebus (African green monkey) PVR expressed on Vero cells (chlorocebus (African green monkey), UniProt P32506 21-417)
T2 construct: whole, on cells; also called chlorocebus PVR
T2 sequence (looked up): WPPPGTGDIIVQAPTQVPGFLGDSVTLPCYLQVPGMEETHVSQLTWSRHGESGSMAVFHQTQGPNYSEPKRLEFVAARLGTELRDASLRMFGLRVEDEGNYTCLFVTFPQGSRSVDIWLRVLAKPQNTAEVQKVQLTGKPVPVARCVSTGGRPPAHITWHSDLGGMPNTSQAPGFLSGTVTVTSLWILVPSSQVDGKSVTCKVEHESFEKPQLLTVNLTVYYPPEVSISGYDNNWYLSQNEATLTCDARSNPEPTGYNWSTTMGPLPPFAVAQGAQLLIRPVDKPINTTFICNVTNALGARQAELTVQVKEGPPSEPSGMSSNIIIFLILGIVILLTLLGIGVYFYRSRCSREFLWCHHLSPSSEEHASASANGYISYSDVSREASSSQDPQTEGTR

T3: human PVR (SPR of the humanized variants, Example 5) (human, UniProt P15151 21-343)
T3 sequence: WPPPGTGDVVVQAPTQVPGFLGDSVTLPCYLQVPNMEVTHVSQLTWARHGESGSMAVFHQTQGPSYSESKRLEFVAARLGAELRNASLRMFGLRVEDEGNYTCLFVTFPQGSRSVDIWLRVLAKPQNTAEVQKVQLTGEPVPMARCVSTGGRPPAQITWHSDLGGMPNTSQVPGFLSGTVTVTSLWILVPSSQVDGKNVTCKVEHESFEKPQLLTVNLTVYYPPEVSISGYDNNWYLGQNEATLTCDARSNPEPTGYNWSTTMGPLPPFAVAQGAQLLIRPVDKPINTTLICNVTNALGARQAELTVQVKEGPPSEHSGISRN


Columns and labels:
[1] = target: T1, PVR conjugated to Histidine tag …; assay: SPR (Biacore T200); KD divided by the KD of VH0/Vκ0 WT
Procedure: FIGS. 1A-1B. Affinity and competition assays of N56 substitutions. FIG. 1A. […] Biacore assay showing relative and absolute affinity of the N56 substitutions (hIgG4 variants) to PVR-HIS tagged (Sino Cat. no. 10109-H08H). Affinity shift of >25% were considered significant.
(§1) Seven chimeric variants were generated by introducing a point mutation at residue asparagine N56. […] Binding was tested for the analyte PVR conjugated to Histidine tag (PVR-HIS, Sino Cat. no. 10109-H08H). Dilution range: Five point two-fold dilution from 50 nM to 3.125 nM. Conditions used: Instrument: Biacore T200 (serial no. 1909913) running Biacore T200 Evaluation Software V2.0.1. Running buffer: HBS-P+, 300 mM NaCl, 1 mg/ml BSA. Flow rate: […]. Association: 350 s, Dissociation: 800 s. Regeneration: 10 mM glycine pH 1.5. Analysis: 1:1 binding.

[2] = target: T2, chlorocebus (African green monkey) PVR …; assay: flow cytometry, 10 ug/ml antibody on Vero cells; MFI divided by the MFI of K0
Procedure: FIGS. 2A-2B. […] To assess maximal binding, saturating dose (10 ug/ml) of the N56 variant monoclonal antibodies (shown at the X axis) were used to stain PVR-expressing cells, and mean fluorescence intensity (MFI) values were determined by FACS analysis. […] (FIG. 2A) NCI-H1975 (human lung) cells and (FIG. 2B) Vero (African green monkey kidney) cells. Affinity shifts of >25% were considered significant.
The binding of the N56 substitution variant antibodies to cell bound PVR of human (protein id: Q92692) and chlorocebus (African green monkey, protein id: UniProtKB—P32506) was examined. FIG. 2A depicts the relative binding of all variants, which were added in saturating concentration (10 ug/ml), to NCI-H1975 cells expressing human PVR. FIG. 2B depicts the relative binding of all variants, which were added in saturating concentration (10 ug/ml), to Vero cells expressing chlorocebus PVR. […] Cell binding of the Abs was analyzed by FACS.

[3] = target: T1, PVR conjugated to Histidine tag …; assay: SPR (Biacore T200), antibody captured on Protein A chip, PVR-HIS as analyte, 1:1 binding
Procedure: as §1

[4] = target: T3, human PVR (SPR of the humanized …); assay: SPR
[5] = target: T3, human PVR (SPR of the humanized …); assay: SPR; relative to N56E VH0/Vκ0
[6] = target: human poliovirus receptor (PVR, CD155) expressed on cells (human) (UniProt P15151); assay: flow cytometry, binding to PVR-expressing HEK 293 cells
[7] = target: human poliovirus receptor (PVR, CD155) expressed on cells (human) (UniProt P15151); assay: flow cytometry, binding to PVR-expressing HEK 293 cells; relative to N56E VH0/Vκ0

Binder	Relative KD [1]	Fold change MFI [2]	Kd [3] [nM]	koff [3] [s⁻¹]	kon [3] [M⁻¹ s⁻¹]	Kd [4] [nM]	Relative KD [5]	EC50 [6] [nM]	Relative EC50 [7]
chimeric anti-PVR antibody 5B9 wild type, IgG4 (S241P), VH0/VK0 (antibody, V domains shown, Mouse/human chimeric antibody with human IgG4 (S241P) constant region; also called WT; parental N56 variant (VH0VK0)) VH: QVQLQQSGAELMKPGASVKISCKATGYTFSNYWIEWIKQRPGHGLEWIGEIFPGSGRINFNEKFKGKATFTADTSSDTTYMQLSSLTSADSAVYYCARTKIYGNSFDYWGQGTTLTVSP VL: DIMMTQSHKFMSTSVGDRVNITCKASQDVGTAVVWYQQKPGQSPKLLIYWASSRHNGVPDRFTGSGSGTDFTLTISNVQSEDLSDYFCQQYSRYPLTFGAGTKLELK	1	1	5.12	0.000715	140000				
VH0/Vκ0 Ala56 (antibody, V domains shown, chimeric 5B9 N56 substitution variant; also called N56A) VH: QVQLQQSGAELMKPGASVKISCKATGYTFSNYWIEWIKQRPGHGLEWIGEIFPGSGRINFNEKFKGKATFTADTSSDTTYMQLSSLTSADSAVYYCARTKIYGNSFDYWGQGTTLTVSP VL: DIMMTQSHKFMSTSVGDRVNITCKASQDVGTAVVWYQQKPGQSPKLLIYWASSRHAGVPDRFTGSGSGTDFTLTISNVQSEDLSDYFCQQYSRYPLTFGAGTKLELK	0.89	1.2	4.57	0.000701	154000				
VH0/Vκ0 Thr56 (antibody, V domains shown, chimeric 5B9 N56 substitution variant; also called N56T) VH: QVQLQQSGAELMKPGASVKISCKATGYTFSNYWIEWIKQRPGHGLEWIGEIFPGSGRINFNEKFKGKATFTADTSSDTTYMQLSSLTSADSAVYYCARTKIYGNSFDYWGQGTTLTVSP VL: DIMMTQSHKFMSTSVGDRVNITCKASQDVGTAVVWYQQKPGQSPKLLIYWASSRHTGVPDRFTGSGSGTDFTLTISNVQSEDLSDYFCQQYSRYPLTFGAGTKLELK	0.86	1.19	4.4	0.000688	156000				
chimeric 5B9 N56D variant, IgG4 (S241P) (antibody, name in Kabat numbering, V domains shown, Human IgG4 (S241P) constant region) VH: QVQLQQSGAELMKPGASVKISCKATGYTFSNYWIEWIKQRPGHGLEWIGEIFPGSGRINFNEKFKGKATFTADTSSDTTYMQLSSLTSADSAVYYCARTKIYGNSFDYWGQGTTLTVSP VL: DIMMTQSHKFMSTSVGDRVNITCKASQDVGTAVVWYQQKPGQSPKLLIYWASSRHDGVPDRFTGSGSGTDFTLTISNVQSEDLSDYFCQQYSRYPLTFGAGTKLELK	0.64	1.27	3.27	0.000637	195000				
VH0/Vκ0 Pro56 (antibody, V domains shown, chimeric 5B9 N56 substitution variant; also called N56P) VH: QVQLQQSGAELMKPGASVKISCKATGYTFSNYWIEWIKQRPGHGLEWIGEIFPGSGRINFNEKFKGKATFTADTSSDTTYMQLSSLTSADSAVYYCARTKIYGNSFDYWGQGTTLTVSP VL: DIMMTQSHKFMSTSVGDRVNITCKASQDVGTAVVWYQQKPGQSPKLLIYWASSRHPGVPDRFTGSGSGTDFTLTISNVQSEDLSDYFCQQYSRYPLTFGAGTKLELK	1.48		7.58	0.00105	138000				
VH0/Vκ0 Ser56 (antibody, V domains shown, chimeric 5B9 N56 substitution variant; also called N56S) VH: QVQLQQSGAELMKPGASVKISCKATGYTFSNYWIEWIKQRPGHGLEWIGEIFPGSGRINFNEKFKGKATFTADTSSDTTYMQLSSLTSADSAVYYCARTKIYGNSFDYWGQGTTLTVSP VL: DIMMTQSHKFMSTSVGDRVNITCKASQDVGTAVVWYQQKPGQSPKLLIYWASSRHSGVPDRFTGSGSGTDFTLTISNVQSEDLSDYFCQQYSRYPLTFGAGTKLELK	1.05	0.73	4.61	0.000701	152000				
chimeric 5B9 N56E variant, IgG4(S241P) N56E_VH0/VK0 (antibody, name in Kabat numbering, V domains shown, Human IgG4 (S241P) constant region; also called chimeric N56E mutated parental antibody) VH: QVQLQQSGAELMKPGASVKISCKATGYTFSNYWIEWIKQRPGHGLEWIGEIFPGSGRINFNEKFKGKATFTADTSSDTTYMQLSSLTSADSAVYYCARTKIYGNSFDYWGQGTTLTVSP VL: DIMMTQSHKFMSTSVGDRVNITCKASQDVGTAVVWYQQKPGQSPKLLIYWASSRHEGVPDRFTGSGSGTDFTLTISNVQSEDLSDYFCQQYSRYPLTFGAGTKLELK	0.69	1.31	3.55	0.000653	184000	5.54	1	0.79	
humanized 5B9 variant VH4/VK3 (antibody, V domains shown) VH: QVQLVQSGAEVKKPGASVKVSCKATGYTFSNYWIEWVRQAPGQGLEWIGEIFPGSGRINFNEKFKGRVTFTADTSISTTYMELSRLRSDDTAVYYCARTKIYGNSFDYWGQGTLVTVSS VL: DIQMTQSPSSLSASVGDRVTITCRASQDVGTAVVWYQQKPGKAPKLLIYWASSRHEGVPSRFSGSGSGTDFTLTISSLQPEDFATYFCQQYSRYPLTFGQGTKLEIK						5.11	0.92	0.59	0.75
humanized 5B9 variant VH5/VK3 (antibody, V domains shown) VH: QVQLVQSGAEVKKPGASVKVSCKATGYTFSNYWIEWVRQAPGQGLEWMGEIFPGSGRINFNEKFKGRVTFTADTSISTAYMELSRLRSDDTAVYYCARTKIYGNSFDYWGQGTLVTVSS VL: DIQMTQSPSSLSASVGDRVTITCRASQDVGTAVVWYQQKPGKAPKLLIYWASSRHEGVPSRFSGSGSGTDFTLTISSLQPEDFATYFCQQYSRYPLTFGQGTKLEIK						7.41	1.34	0.57	0.72
humanized 5B9 variant VH5/VK2 (antibody, V domains shown) VH: QVQLVQSGAEVKKPGASVKVSCKATGYTFSNYWIEWVRQAPGQGLEWMGEIFPGSGRINFNEKFKGRVTFTADTSISTAYMELSRLRSDDTAVYYCARTKIYGNSFDYWGQGTLVTVSS VL: DIQMTQSPSSLSASVGDRVTITCKASQDVGTAVVWYQQKPGKAPKLLIYWASSRHEGVPDRFSGSGSGTDFTLTISSLQPEDFADYFCQQYSRYPLTFGQGTKLEIK						5.68	1.03	0.64	0.82

— patent US20260152568A1 (NECTIN THERAPEUTICS, published 2026)
